Source: patent US20250051460A1 (Boehringer Ingelheim, published 2025)
Several values for one entry are separate records, joined by “and”; a condition that tells them apart may be missing. Equal values may be shown once. Read-outs that look alike come from different tables or passages of the source.

B1: TPP-14938 (bispecific antibody, human IgG1, kappa, L234A L235A)
heavy: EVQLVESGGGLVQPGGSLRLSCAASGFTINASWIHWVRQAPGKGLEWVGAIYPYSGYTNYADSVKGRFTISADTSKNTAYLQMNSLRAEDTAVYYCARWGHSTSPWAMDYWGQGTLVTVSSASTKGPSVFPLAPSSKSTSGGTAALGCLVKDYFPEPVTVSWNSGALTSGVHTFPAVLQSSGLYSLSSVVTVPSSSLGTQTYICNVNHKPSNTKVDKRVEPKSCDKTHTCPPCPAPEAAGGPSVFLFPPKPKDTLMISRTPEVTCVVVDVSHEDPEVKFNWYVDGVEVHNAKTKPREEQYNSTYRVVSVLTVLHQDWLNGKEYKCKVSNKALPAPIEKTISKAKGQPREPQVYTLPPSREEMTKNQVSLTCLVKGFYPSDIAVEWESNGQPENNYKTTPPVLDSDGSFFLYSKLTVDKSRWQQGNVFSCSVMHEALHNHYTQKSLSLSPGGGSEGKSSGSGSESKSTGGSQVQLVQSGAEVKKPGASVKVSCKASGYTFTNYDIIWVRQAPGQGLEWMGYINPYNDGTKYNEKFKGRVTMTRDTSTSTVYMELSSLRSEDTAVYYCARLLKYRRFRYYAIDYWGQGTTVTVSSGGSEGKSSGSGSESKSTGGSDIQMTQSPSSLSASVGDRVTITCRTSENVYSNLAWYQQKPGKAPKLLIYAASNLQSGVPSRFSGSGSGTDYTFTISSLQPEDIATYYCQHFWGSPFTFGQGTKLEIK
light: DIQMTQSPSSLSASVGDRVTITCRASQVIRRSLAWYQQKPGKAPKLLIYAASNLASGVPSRFSGSGSGTDFTLTISSLQPEDFATYYCQQSNTSPLTFGQGTKVEIKRTVAAPSVFIFPPSDEQLKSGTASVVCLLNNFYPREAKVQWKVDNALQSGNSQESVTEQDSKDSTYSLSSTLTLSKADYEKHKVYACEVTHQGLSSPVTKSFNRGEC
B2: TPP-14939 (bispecific antibody, human IgG1, kappa, L234A L235A)
heavy: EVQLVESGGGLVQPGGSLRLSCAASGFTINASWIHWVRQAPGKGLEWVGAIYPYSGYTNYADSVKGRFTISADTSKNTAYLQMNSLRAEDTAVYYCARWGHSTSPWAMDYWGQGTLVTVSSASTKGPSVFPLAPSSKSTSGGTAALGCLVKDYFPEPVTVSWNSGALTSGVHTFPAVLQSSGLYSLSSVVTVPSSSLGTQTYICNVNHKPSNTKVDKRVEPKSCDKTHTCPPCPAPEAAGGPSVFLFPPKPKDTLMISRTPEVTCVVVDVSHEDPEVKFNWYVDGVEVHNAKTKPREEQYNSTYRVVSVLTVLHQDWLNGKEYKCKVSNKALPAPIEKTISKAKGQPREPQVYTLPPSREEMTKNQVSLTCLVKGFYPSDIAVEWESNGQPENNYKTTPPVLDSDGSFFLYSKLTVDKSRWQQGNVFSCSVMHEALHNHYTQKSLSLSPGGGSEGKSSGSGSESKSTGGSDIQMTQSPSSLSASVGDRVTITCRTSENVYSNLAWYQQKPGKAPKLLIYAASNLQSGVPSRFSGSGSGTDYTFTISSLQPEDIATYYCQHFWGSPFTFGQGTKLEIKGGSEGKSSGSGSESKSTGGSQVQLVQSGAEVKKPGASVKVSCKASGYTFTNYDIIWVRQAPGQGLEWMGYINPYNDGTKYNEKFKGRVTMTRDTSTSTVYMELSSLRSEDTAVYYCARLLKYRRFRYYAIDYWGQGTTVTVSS
light: B1 light
B3: TPP-14937 (bispecific antibody, human IgG1, kappa, L234A L235A)
heavy: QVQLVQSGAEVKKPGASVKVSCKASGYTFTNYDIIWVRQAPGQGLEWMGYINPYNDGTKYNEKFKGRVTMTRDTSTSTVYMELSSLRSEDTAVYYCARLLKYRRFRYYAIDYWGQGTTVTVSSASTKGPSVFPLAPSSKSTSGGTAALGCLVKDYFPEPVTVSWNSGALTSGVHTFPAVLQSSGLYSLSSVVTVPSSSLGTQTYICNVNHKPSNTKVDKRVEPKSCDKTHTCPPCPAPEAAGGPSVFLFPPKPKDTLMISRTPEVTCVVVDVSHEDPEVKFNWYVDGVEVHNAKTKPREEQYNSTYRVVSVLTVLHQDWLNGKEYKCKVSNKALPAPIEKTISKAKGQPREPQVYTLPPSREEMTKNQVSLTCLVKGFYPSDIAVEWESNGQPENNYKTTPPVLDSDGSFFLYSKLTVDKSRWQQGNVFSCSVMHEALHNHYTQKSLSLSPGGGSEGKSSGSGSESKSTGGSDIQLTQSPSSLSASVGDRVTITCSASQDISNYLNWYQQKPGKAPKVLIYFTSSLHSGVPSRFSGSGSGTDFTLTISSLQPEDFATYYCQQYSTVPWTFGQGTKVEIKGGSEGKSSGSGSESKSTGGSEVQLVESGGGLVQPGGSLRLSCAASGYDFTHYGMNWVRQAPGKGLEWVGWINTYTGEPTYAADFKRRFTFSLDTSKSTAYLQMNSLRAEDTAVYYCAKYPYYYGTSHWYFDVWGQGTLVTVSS
light: DIQMTQSPSSLSASVGDRVTITCRTSENVYSNLAWYQQKPGKAPKLLIYAASNLQSGVPSRFSGSGSGTDYTFTISSLQPEDIATYYCQHFWGSPFTFGQGTKLEIKRTVAAPSVFIFPPSDEQLKSGTASVVCLLNNFYPREAKVQWKVDNALQSGNSQESVTEQDSKDSTYSLSSTLTLSKADYEKHKVYACEVTHQGLSSPVTKSFNRGEC
B4: TPP-11738 (bispecific antibody, human IgG1, kappa, L234A L235A)
heavy: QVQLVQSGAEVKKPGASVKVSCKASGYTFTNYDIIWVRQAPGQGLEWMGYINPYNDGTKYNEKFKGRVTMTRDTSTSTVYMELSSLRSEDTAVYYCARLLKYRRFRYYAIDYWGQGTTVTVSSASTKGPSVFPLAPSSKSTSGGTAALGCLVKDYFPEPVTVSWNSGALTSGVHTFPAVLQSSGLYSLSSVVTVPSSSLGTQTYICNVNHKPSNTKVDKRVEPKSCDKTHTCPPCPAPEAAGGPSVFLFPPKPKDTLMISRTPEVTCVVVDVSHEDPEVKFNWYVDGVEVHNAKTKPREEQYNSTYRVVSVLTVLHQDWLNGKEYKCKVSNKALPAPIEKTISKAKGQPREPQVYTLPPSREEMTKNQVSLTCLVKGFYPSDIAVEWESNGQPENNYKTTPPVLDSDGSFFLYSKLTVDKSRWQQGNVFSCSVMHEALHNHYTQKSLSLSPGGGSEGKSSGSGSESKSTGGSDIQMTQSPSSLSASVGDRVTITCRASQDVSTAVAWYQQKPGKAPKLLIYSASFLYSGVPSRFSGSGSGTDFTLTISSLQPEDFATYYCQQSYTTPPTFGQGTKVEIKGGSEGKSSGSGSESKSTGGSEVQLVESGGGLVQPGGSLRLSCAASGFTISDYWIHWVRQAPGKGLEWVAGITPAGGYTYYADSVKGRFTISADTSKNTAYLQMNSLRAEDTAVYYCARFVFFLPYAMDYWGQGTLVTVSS
light: B3 light
B5: TPP-14936 (bispecific antibody, human IgG1, kappa, L234A L235A)
heavy: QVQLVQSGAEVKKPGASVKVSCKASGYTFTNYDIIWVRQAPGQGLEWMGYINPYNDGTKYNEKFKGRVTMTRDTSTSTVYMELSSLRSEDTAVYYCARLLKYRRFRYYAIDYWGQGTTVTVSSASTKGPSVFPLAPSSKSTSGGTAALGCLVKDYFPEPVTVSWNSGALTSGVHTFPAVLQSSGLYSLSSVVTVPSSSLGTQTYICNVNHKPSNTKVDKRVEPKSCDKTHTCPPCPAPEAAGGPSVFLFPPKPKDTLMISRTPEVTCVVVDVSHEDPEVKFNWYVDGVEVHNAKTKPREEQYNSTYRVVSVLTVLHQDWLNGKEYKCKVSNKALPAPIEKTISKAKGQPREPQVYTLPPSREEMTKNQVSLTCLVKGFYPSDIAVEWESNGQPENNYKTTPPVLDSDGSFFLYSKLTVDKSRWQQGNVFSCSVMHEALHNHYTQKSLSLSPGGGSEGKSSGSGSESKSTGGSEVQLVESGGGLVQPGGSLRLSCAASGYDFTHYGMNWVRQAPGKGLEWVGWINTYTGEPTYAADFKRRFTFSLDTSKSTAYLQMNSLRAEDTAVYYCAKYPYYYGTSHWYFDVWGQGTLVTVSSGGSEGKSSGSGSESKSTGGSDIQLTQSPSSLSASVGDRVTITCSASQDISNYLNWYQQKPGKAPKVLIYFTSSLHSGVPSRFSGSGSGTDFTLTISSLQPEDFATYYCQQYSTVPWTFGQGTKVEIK
light: B3 light
B6: TPP-11736 (bispecific antibody, human IgG1, kappa, L234A L235A)
heavy: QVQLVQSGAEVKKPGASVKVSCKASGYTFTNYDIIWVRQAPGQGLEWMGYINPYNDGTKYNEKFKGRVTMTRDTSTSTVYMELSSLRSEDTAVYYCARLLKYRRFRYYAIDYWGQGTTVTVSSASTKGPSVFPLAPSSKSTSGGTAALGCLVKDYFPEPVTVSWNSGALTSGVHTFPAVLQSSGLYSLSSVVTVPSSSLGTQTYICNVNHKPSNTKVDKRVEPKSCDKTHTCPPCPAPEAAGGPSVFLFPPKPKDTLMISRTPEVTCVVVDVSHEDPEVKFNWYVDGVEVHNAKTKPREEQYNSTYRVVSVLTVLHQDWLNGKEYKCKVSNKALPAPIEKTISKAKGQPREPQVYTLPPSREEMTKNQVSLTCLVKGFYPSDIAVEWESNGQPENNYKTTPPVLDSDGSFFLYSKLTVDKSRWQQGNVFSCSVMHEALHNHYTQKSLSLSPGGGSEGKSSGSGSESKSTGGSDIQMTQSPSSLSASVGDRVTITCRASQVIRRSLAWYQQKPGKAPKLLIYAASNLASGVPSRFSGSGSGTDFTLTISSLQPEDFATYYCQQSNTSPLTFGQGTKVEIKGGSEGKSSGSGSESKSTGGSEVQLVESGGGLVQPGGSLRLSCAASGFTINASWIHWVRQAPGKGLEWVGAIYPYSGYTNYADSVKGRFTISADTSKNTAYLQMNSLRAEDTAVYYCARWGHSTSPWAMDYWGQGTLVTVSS
light: B3 light

Tests used:
Assay in all cases: cell-based or functional assay
human VEGF-A [1] = target: T1, human VEGF-A (human, UniProt P15692-4 27-191)
T1 sequence (P15692 other isoform, or with tags, fused parts or gaps limits assumed): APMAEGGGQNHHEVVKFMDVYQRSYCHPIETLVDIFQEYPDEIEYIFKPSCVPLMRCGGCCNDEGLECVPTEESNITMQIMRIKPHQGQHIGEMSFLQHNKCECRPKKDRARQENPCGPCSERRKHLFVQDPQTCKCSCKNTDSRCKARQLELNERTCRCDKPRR

human VEGF-A [2] = target: T1, human VEGF-A; remark: listed apart in the source
human VEGF-A [3] = target: T1, human VEGF-A; remark: listed apart in the source
human VEGF-A [4] = target: T1, human VEGF-A; remark: listed apart in the source
human VEGF-A [5] = target: T1, human VEGF-A; remark: listed apart in the source
human VEGF-A [6] = target: T1, human VEGF-A; remark: listed apart in the source

Binder	Bottom plateau (ERK1/2 phosphorylation, counts) (human VEGF-A [1]) [counts]	Bottom plateau (Src phosphorylation, counts) (human VEGF-A [1]) [counts]	IC50 (ERK1/2 phosphorylation) (human VEGF-A [1]) [nM]	IC50 (Src phosphorylation) (human VEGF-A [1]) [nM]	Bottom plateau (ERK1/2 phosphorylation, counts) (human VEGF-A [2]) [counts]	Bottom plateau (Src phosphorylation, counts) (human VEGF-A [2]) [counts]	IC50 (ERK1/2 phosphorylation) (human VEGF-A [2]) [nM]	IC50 (Src phosphorylation) (human VEGF-A [2]) [nM]	Bottom plateau (ERK1/2 phosphorylation, counts) (human VEGF-A [3]) [counts]	Bottom plateau (Src phosphorylation, counts) (human VEGF-A [3]) [counts]	IC50 (ERK1/2 phosphorylation) (human VEGF-A [3]) [nM]	IC50 (Src phosphorylation) (human VEGF-A [3]) [nM]	concentration for full inhibition of VEGF-induced HRMEC proliferation (human VEGF-A [4]) [nM]	Bottom plateau (ERK1/2 phosphorylation, counts) (human VEGF-A [5]) [counts]	Bottom plateau (Src phosphorylation, counts) (human VEGF-A [5]) [counts]	IC50 (ERK1/2 phosphorylation) (human VEGF-A [5]) [nM]	IC50 (Src phosphorylation) (human VEGF-A [5]) [nM]	IC50 (ERK1/2 phosphorylation) (human VEGF-A [4])	also measured
B1	1330	5480	2.71	1.8	1330	5480	2.71	1.8											
B2	1140	5540	2.51	1.16	1140	5540	2.51	1.16											
B3									-927	4570	5.6	5.8	4	-926	4570	5.58	5.83		
B4																		~4 nM and ~10 nM	
B5									-341	4650	3.5	3.4	1	-340	4650	3.49	3.4		
B6	3690	6300	5.59	3.97	3690	6300	5.59	3.97	3690	6300	5.6	4		3690	6300	5.59	3.97	~4 nM and ~10 nM	IC50 (ERK1/2 phosphorylation) (human VEGF-A [6]): 9.1 nM; IC50 (p38 MAPK phosphorylation) (human VEGF-A [6]): 7.7 nM; IC50 (p38 MAPK phosphorylation) (human VEGF-A [4]): ~7.4 nM
